{"source": "patent US20090186337A1", "about": "(INSTITUT NATIONAL DE LA RECHERCHE AGRONOMIQUE INRA, published 2009)", "binders": {"B1": {"name": "protein P (fragment 161-241) fused to GST (other)", "chain": "SARDGIRDAMVGLREEMIEKIRTEALMTNDRLEAMARLRNEESEKMAKDTSDEVSLNPTSEKLNNLLEGNDSDNDLSLEDF", "notes": "not shown: GST carrier at the N end (from pGEX-4T-3) and the vector-encoded junction with the thrombin site"}, "B2": {"name": "P protein (phosphoprotein) of human RSV Long strain (other)", "chain": "B1 chain"}, "B3": {"name": "P protein of the measles virus deleted of its N-terminal part as far as residue 456 (inclusive) (other)", "chain": "GPASRSVIRSIIKSSRLEEDRKRYLMTLLDDIKGANDLAKFHQMLMKIIMK", "notes": "also called PΔ457N"}}, "key": {"[1]": {"biological_target": "T1, N protein (nucleocapsid protein) of human RSV Long strain (human RSV Long strain, UniProt P03418 1-391)", "T1 construct": "also called native N protein", "experiment": "coexpression in E. coli, copurification of N with the P fragment"}, "[2]": {"biological_target": "N protein deleted of 27 residues at the C-terminal end (human RSV Long strain, UniProt P03418 1-364)", "experiment": "interaction of truncated N with P (method not detailed)"}, "[3]": {"biological_target": "T2, N protein of the measles virus (measles virus strain Edmonston B, UniProt P0DXN6 1-525)", "T2 sequence": "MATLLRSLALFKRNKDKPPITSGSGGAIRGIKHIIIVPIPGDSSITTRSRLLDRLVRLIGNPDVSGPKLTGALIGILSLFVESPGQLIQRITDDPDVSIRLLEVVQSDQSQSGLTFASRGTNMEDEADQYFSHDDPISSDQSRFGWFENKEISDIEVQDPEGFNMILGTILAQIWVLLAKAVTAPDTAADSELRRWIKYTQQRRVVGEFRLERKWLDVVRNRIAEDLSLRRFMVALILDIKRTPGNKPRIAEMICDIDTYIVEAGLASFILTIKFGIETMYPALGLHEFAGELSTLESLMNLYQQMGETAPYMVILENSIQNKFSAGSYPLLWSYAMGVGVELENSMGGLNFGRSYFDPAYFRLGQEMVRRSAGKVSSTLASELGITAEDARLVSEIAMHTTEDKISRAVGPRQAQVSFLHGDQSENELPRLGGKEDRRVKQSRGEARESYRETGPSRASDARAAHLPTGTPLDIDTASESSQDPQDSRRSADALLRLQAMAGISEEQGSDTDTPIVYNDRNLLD", "experiment": "coexpression in E. coli and copurification of N with the P fragment"}}}
{"binder": "B1", "values": [{"measurement": "binding result", "setting": "[1]", "value": "binds"}]}
{"binder": "B2", "values": [{"measurement": "binding result", "setting": "[2]", "value": "no binding"}]}
{"binder": "B3", "values": [{"measurement": "binding result", "setting": "[3]", "value": "no binding"}]}
